# Measurements taken from the DeepSol protein solubility set.
# Test: soluble on expression in E. coli; label from the status in PepcDB or PDB records
row,Sequence,soluble on expression in E. coli
1,MLVDHLLARGATDVRALTNHPDKAQLPDSVTVVEGYLRRLGSLPAAFEGVDSLYLAPTPDTAPDALALAKQAGVRHVVDLSGPHDGHWGDVARAVEASGIEWTHLWPGEFMENAGILAPQITAGDTVREPYPTAANAPIAMDDIAEVAAVALLESGHVGASYELTGPETITRAELVRELGAALGRNIEYRQVSLDEAVDVLTPAMGEYARWY,not soluble
2,MLVKPPYSYIALITMAIQNAPEKKITLNGIYQFIMDRFPFYRENKQGWQNSIRHNLSLNECFVKVPRDDKKPGKGSYWTLDPDSYNMFENGSFL,soluble
3,MLVNTKAKVGVFSIALGAYLPQFPSLVPEFEAQYEAFKKTIPDTVEIIDGGMVTTKEQSMVAGDKFRAADVDIVFLQMLTYATSYNMLPAIRDLDVPVVLVNVQKLKALDYDHTDIAAWLGEGYACGAVGEAVADLERAGKRHAVITGVVEGGDPAVQAEIEDWCKAAQVRRRFRDTNIAQIGRPYPGMMDLYIDETNLYNRMFLYTKQFDWEKMWAIADDITDEEAIRAKAQDILDTFDIEDGGTIEKVWDMAKYVVAFEKWVKDEHLSMVASHYDGFAQGKAGVLDSMLIPAFSMLIKQGTACAVEGDMKVAMAMSILKTISGTGQLSEMYSIDFNEDICIIGHSGSGDADISDKKPTMKIVPVFHGKTGGGYLTQFYPYTGPVTYLAITQDKDGHFKFVVAEGVNEEGPILSFGDTNMRTRFTCGAREFVNRWSEAGPTHHMAAATGRHIDTILKVAKIFNIPVDIVTR,not soluble
4,MLWSGCRRFGARLGCLPGGLRVLVQTGHRSLTSCIDPSMGLNEEQKEFQKVAFDFAAREMAPNMAEWDQKELFPVDVMRKAAQLGFGGVYIQTDVGGSGLSRLDTSVIFEALATGCTSTTAYISIHNMCAWMIDSFGNEEQRHKFCPPLCTMEKFASYCLTEPGSGSDAASLLTSAKKQGDHYILNGSKAFISGAGESDIYVVMCRTGGPGPKGISCIVVEKGTPGLSFGKKEKKVGWNSQPTRAVIFEDCAVPVANRIGSEGQGFLIAVRGLNGGRINIASCSLGAAHASVILTRDHLNVRKQFGEPLASNQYLQFTLADMATRLVAARLMVRNAAVALQEERKDAVALCSMAKLFATDECFAICNQALQMHGGYGYLKDYAVQQYVRDSRVHQILEGSNEVMRILISRSLLQE,not soluble
5,MMDGDIIGENEDGIGVDVSDNNEIIHEISIEKGSWEIVYHEQDGYPDKAAKRTPDGNEHVNQARRFARYHVYKERGYETFPWDEHIGYIETVGDAIKSLSTEEFEDYFGEFYETVAGSLSLNSGGDITALFAAIQEKANAYYIDVYLDNDGQVEATSEVRQIIPTDDWQEELESPPEDTDRVPD,not soluble
6,MMEDGNYIINPWVYTDRMGMYRILLEETAMYFAKYGPENEQNLLWGLPLQFGWQYQSGRLADPTGMTDCGNELNESLCVSVDSWWADINYYLSVIPFLAAVDSGITGISPNQITILPPPKDQMRFCYNVSDCQSAVPGTMNRWRDFFQYMQLNSSDFDGLLNYLWEAHASSLDYPTSAFGDRYNFYSEKEANFEENWAIAVNYLAAARLPTTQNRTYSFQRGLPPRVLVDTDIAPFIPDFTPLQNEVLVSLKLLGDTDRNSGSLSLTLWENLMSTKLARTLFLKAFEEFLVTSS,soluble
7,MMEGVRRAVAKFLRGGGVYEKAVDAFVKDLQRELIKADVNVKLVLNVTRRIKERALKEEPPPGVTRRDWMIKIVYEELVKLFGGDQEPQVDPPKTPWIVLLVGVQGSGKTTTAGKLAYYYVRRGYKVGLVSSDTHRPGAYEQLKRLAEEAGAMFYGEREGDPAEIARRGLEDLLSRGAEIVIVDTAGRHGHGEEARLLDEMKAIASKVRPDEVALVIDASIGQKAMGLAERFHKSTPIGSIIVTKMDGTARGGGALTAAAVTGARIKFIGTGETLGELEPFAPRRFVARILGMGDLESLLERIKSLEEAGELDRAAEDVLKGRITMRTIYRQLRAMRKLGPLGKVLQMLPGASMLASIDEGALKLGEEKMKRWMAIIESMTYEELDRPEIIDKRRMRRIAIGSGTSVDDVRELLVYYKNLKTMMKKLKRDKRLLRRLGMEL,soluble
8,MMGLLSTIRGKKEPVVGNGIGSAQVGPLNAKTKKLVIQEWPRVLAQCPELFTEIWHKSATRSTSIKLAFGIAENESPMQNAAFLGLSSTIQAFFYKLIITYELNDDQVREACEQLGARHVDFISRGFNSHFWDIFLVCMAEKIDETLSAYIPDEDKRNEMILAWQRVINSIVHQMRNGYSDRRKQQLGGTKGGSNNGF,not soluble
9,MMIDDSKVSFVIPTINEEGTIGSVIDGIRSEFPNSEIIVVDTNSTDRTREIARSKGARVIEEPRRGYGRAYQTGIPAASGEIIVCMDGDGTYPTDVVKPLIELLIADRVDFISCDRITFRTSKNYTTLHYVGNMVLNLTIRILFKVRMVDSQSGMWVFRSEIYRKMKNLGNGMSFSQNIKIEAVRHGVFMEIPIRYGVRITKPKLKTWHDGFHNLFALFVKRVSE,not soluble
10,MMIKIAVVGSKEFMENLFPIAQKLEGIEIDPYIYLHPAESSELLKCLKPCDVIFFSGALPYYMAKEIREQLRIPSTYLQQDETTVASSILSIMYHQSIQPHNISIDLVDRSFITNVFHDIGIKESPQVLDYENMLWSKDEINRVIDFHVAKYQYGEAHLALTSIHAVYDELQKIGIPSERMIDPTQSIIHGLKDAKIKAELAKSYSATVGACIISSLELRASLLEKLDVISKELRGSFKQVDEMTCILYTTRGDIESIIKTNAIDNLFASIEGTIAIGFGYGKTVKEAEQNAKIAQSFAKNYPIDRCFYILASDKDLFGPFPKEQRVQSLKNDNPELMKIAKETKLSPANLSKIIQFSQSHPSLKFTAADLSEYLQVTRRSTERLLKKLVDYGYAHICGEEMPYQQGRPRALYELNFPLFLSF,not soluble
11,MMKDLNLSNSLFKGYNDKHGLMICGYEWGWSKADEAAYVAGEYKLPENKIDHTFANKSLYFGEQAKKWRYDNTIKNWFEMWGHPLDENGLGGAFEKSLVQTNWAATQGNTIDNPDKFTQPEHIDNFLYHIEKLRPKVILFMGSRLADFLNNQNVLPRFEQLVGKQTKPLETVQKEFDGTRFNVKFQSFEDCEVVCFPHPSASRGLSYDYIALFAPEMNRILSDFKTTRGFK,not soluble
12,MMKKDYRTQVIEDLKKQDKAKKVLRDEQLLEELIQLEAYQKAHVIATYLAFPFEFDTSLLIEQAQRDNKSIVVPKTYPQGKMIFVVYDEADLQITKFGLKEPRSEEALEKSAIDLIHVPGLAFNNEGYRIGFGAGYYDQYLADFQGDTVSTIYSFQKFTFEPSFFDIPVKEVLVSGDLLEHHHHHH,soluble
13,MMKKEKELLVAIASQKGGVGKSVFTVLLASVLHYRKDVRVAVVDCDSPQHSIALMRERDMENVMKNDDLKVNLYRQYERIRKPAYPVIKSDPEKGVEDLRRYMDEKGETFDIVLFDLPGTLRSEGVVHTVAAMDYIFVPLKADNIVMQSSLQFTKVLEEELIAKGNCNLKGIRLFWNMVDRRGRKNLYDAWNRVIHRMGLRLLSSHIPNTLRYNKEADPVCKGVFRSTLFPPDPRQEKDSGLPELVEAAFFGRDPGITLL,not soluble
14,MMKKMAIACALLSSVVASSVWADAASSLKSRLDKVSSFHATFTQKVTDGSGAAVQEGQGDLWVKRPNLFNWHMTQPDESILVSDGKTLWFYNPFVEQATATWLKDATGNTPFMLIARNQASDWQQYNIKQDGDNFVLTPKASNGNLKQFTINVGRDGTIHQFSAVEQDDQRSAYQLKSQQNGAVDPSKFTFTPPQGVTIDDQRK,not soluble
15,MMKTNTKKAKYDDAELFEKVLVGMSWLESHLREIIQTMVTDADVSFEQFLILYYLDHSTDHRITVKELAADRHVSSSAISRKLTYLINNDLIVLNIDPYDRRYRYLTLTAKGEKLARVIEKVNEERLGKFLDEFGRIRTSELTDELRMVSKVLVDTKEIKG,not soluble
16,MMLITDTGVPERYIDTDEWGGEVMLRLDDGWCAALDRNTMMCTIYEKRPLICREFEAGAEDCLTERKGIATAYL,soluble
17,MMLKQAAKKALGLTSRQSTPWSVGILRTYHENVIDHYDNPRNVGSFDKNDPNVGTGLVGAPACGDVMKLQIKVDEKTGQIVDARFKTFGCGSAIASSSVATEWVKGKAMEDVLTIKNTEIAKHLSLPPVKLHCSMLAEDAIKAAVKDYKEKRVKTNGAAAAGETTQA,not soluble
18,MMMFLPPEVVREIHEERVKKALENLKAIELEKELLEKVVKEEKKVSSRRRRREKETVEV,not soluble
19,MMNASTKFSDNYDVKEELGKGAFSVVRRCVHKTTGLEFAAKIINTKKLSARDFQKLEREARICRKLQHPNIVRLHDSIQEESFHYLVFDLVTGGELFEDIVAREFYSEADASHCIQQILESIAYCHSNGIVHRDLKPENLLLASKAKGAAVKLADFGLAIEVNDSEAWHGFAGTPGYLSPEVLKKDPYSKPVDIWACGVILYILLVGYPPFWDEDQHRLYAQIKAGAYDYPSPEWDTVTPEAKSLIDSMLTVNPKKRITADQALKVPWICNRERVASAIHRQDTVDCLKKFNARRKLKAAISAVKMVTRMSGVLRTSDSTGSVASNGSTTHDASQVAGTSSQPTSPAAEGAILTTMIATRNLSNLGRNLLNKKEQGPPSTIKESSESSQTIDDNDSEKGGGQLKHENTVVRADGATGIVSSSNSSTASKSSSTNLSAQKQDIVRVTQTLLDAISCKDFETYTRLCDTSMTCFEPEALGNLIEGIEFHRFYFDGNRKNQVHTTMLNPNVHIIGEDAACVAYVKLTQFLDRNGEAHTRQSQESRVWSKKQGRWVCVHVHRSTQPSTNTTVSEF,not soluble
20,MMNLHALPTSPRRWQCYDGGNFYQTRLRVSESPNMFKKILFPLVALFMLAGCAKPPTTIEVSPTITLPQQDPSLMGVTVSINGADQRTDQALAKVTRDNQIVTLTASRALRFLLQEVLEKQMTARGYMVGPNGPVNLQIIVSQLYADVSQGNVRYNIATKADIAIIATAQNGNKMTKNYRASYNVEGAFQASNKNIADAVNSVLTDTIADMSQDTSIHEFIKQNAR,not soluble
21,MMPFEAVIGLEVHVQLNTKTKIFCSCSTSFGESPNSNTCPVCLGLPGALPVLNKEVVKKAIQLGTAIEANINQYSIFARKNYFYPDLPKAYQISQFEVPIVSDGKLEIDTKEGAKIVRIERAHMEEDAGKNIHEGSYSLVDLNRACTPLLEIVSKPDMRNSEEAIAYLKKLHAIVRFIGISDANMQEGNFRCDANVSIRPKGDEKLYTRVEIKNLNSFRFIAKAIEYEIERQSAAWENGRYNEEVVQETRLFDTHKGITLSMRNKEESADYRYFKDPDLYPVFIDEKLLKEAQKINELPSAKKIRYMKDFNLKEDDANLLVSDPLLAQYFESMLHLGVKAKTSVTWLCVELLGRLKAEITLENCGVSTHMLGALAKRIDEGKISGKSAKDVLDKLLEEQGGDVDALIEQMGLSQVNDTEAIVKVIEEVLKNNADKVLEYKSGKDKLFGFFVGQAMKNLKGANPSVVNAILKEKLG,not soluble
22,MMQIDSIEIGGKVYQFFKSDLGNAPLLFIKGSKGYAMCGYLNMETSNKVGDIAVRVMGVKTLDDMLSAKVVEASQEAQKVGINPGDVLRNVIDKL,soluble
23,MMQISDTYNQKHSLFNAMNRFIGAVNNMDQTVMVPSLLRDVPLDMEVKDEVHNTIGATNYFSRTDMHGYYILLKSIRNDIEWGVVQGEDRKKDKLSNMEISRLEDGDGEEDLEKQFHYHLSGLHTVLNKLTRKAHILTNRYKEEIGFGSWGH,not soluble
24,MMRGSHHHHHTDPISYIIRKADSVNKALDSAVPLREPLKIHEAMRYSLLAGGKRVRPVLCIAACELVGGEESLAMPAACAVEMIHTMSLIHDDVYGEDVAVLAGDALLSFAFEHLASATSSEVSPARVVRAVGELAKAIGTEGLVAGQVVDISNVGLEHLKFIHLHKTAALLEASAVLGGIIGGGSDEEIERLRKFARCIGLLFQVVDDILDVTIADKLTYPKLMGLEKSREFAEKLNTEARDQLLGFDSDKVAPLLALANYIANRQN,soluble
